# Reference: US8153759B2, “Depsipeptide containing lactic acid residue” (National University Corporation Gunma University, priority 2006, dated 2012)
# Non-standard residues stand in square brackets, D forms with d. No end group written: not given here. Hmb = valic acid residue (β-branched hydroxycarboxylic acid); Lac = C[C@H](O)C(=O)O
# Test: Observation of temperature responsiveness by apparent absorbance (turbidity at 350 nm) of aqueous polymer solutions
# Format: physicochemical
# Conditions: for temperature responsiveness (gelation/aggregation by heating, liquefaction by cooling): reversibility / aggregation temperature: aqueous solution 10 mg/mL; for temperature responsiveness (gelation/aggregation by heating, liquefaction by cooling): reversibility: temperature-increase and -decrease rate 1° C./5 minutes between 20° C. and 70° C., 350 nm; for aggregation temperature: rate 1° C./5 minutes, 350 nm (FIG. 9)
# Protocol: (§1) FIG. 5 illustrates a graph obtained by the following procedure: an aqueous solution of poly(Gly-Ile-Gly-Lac-Pro) (SEQ ID NO: 7) (10 mg/mL) which is one embodiment of the present invention was put in a 1-mm-thick quartz cell for absorption spectra; the temperature was increased at a rate of 1° C./5 minutes between 20° C. and 70° C. and then decreased; transmittance (%) was measured with respect to a light of 350 nm at each temperature in a 1° C. interval; and a turbidity (%) obtained by subtracting the transmittance (%) from 100 was plotted.
# as §1, with “FIG. 6” for “FIG. 5”, “of poly(Ala-Ile-Gly-Lac-Pro)” for “of poly(Gly-Ile-Gly-Lac-Pro)”, “NO: 8)” for “NO: 7)”
# as §1, with “FIG. 9” for “FIG. 5”, “of poly(Gly-Val-Gly-Lac-Pro)” for “of poly(Gly-Ile-Gly-Lac-Pro)”, “NO: 9)” for “NO: 7)”, “plotted. In addition, as a comparative example, a plot of an aqueous solution (10 mg/mL) of poly(Gly-Val-Gly-Hmb-Pro) was shown.” for “plotted.”
# as §1, with “FIG. 10” for “FIG. 5”, “of poly(Gly-Val-Gly-Lac-Pro)” for “of poly(Gly-Ile-Gly-Lac-Pro)”, “NO: 9)” for “NO: 7) (10 mg/mL)”, “invention with different concentrations (10, 20, 30, and 40 mg/mL)” for “invention”
# as §1, with “FIG. 11” for “FIG. 5”, “of poly(Gly-Val-Gly-Lac-Pro)” for “of poly(Gly-Ile-Gly-Lac-Pro)”, “NO: 9) (40” for “NO: 7) (10”
# The change in temperature responsiveness of each polymer obtained in Examples 2 and 4 due to heating an aqueous solution of the polymer was observed by apparent absorbance. The wavelength for observation was 350 nm. The wavelength corresponds to phenomenon of light scattering, i.e. white turbidity, by visual observation. Here, spectrum of poly(Gly-Ile-Gly-Lac-Pro (SEQ ID NO: 7)) and poly(Ala-Ile-Gly-Lac-Pro) (SEQ ID NO: 8) are shown in FIG. 5 and FIG. 6, respectively. The ordinate axes each represent turbidity converted from the transmittance. From the figure, the temperature responsiveness rate can be compared. […] In addition, in comparison between the observation by visual observation and the measured turbidity, the polymer underwent aggregation adequately even when the turbidity exceeds about 10 to 20%. […] The solution was actually returned to a uniform solution finally by left standing at 4° C. for 1 to 2 days. The extremely slow responsiveness (return to a uniform solution) at a low temperature is a novel property that has not happened before. […]
Substance,"temperature responsiveness (gelation/aggregation by heating, liquefaction by cooling): reversibility",aggregation temperature,also measured
"poly(Ala-Ile-Gly-Lac-Pro) (AIG[Lac]P; numbers in words are those of the source; also: polymerized repeat, ~10 units) [depsipeptide polymer, polymerization degree about 10 (molecular weight about 4,500)]",irreversible temperature responsiveness for several hours even when cooled,–,"time left standing until aggregated solution returned to a uniform solution (aggregation state at high temperature transferred to low temperature, left standing at 4° C.): 1 to 2 days"
"poly(Gly-Ile-Gly-Lac-Pro) (GIG[Lac]P; numbers in words are those of the source; also: polymerized repeat, ~3 units) [depsipeptide polymer, polymerization degree about 3 (molecular weight about 1,200)]",reversible temperature responsiveness,–,–
"poly(Gly-Val-Gly-Hmb-Pro) (GVG[Hmb]P; also: polymerized repeat unit) [comparative depsipeptide polymer, Hmb=2-hydroxy-3-methylbutanoic acid (valic acid residue), reference compound]",–,20-30 °C,–
poly(Gly-Val-Gly-Lac-Pro) (GVG[Lac]P; also: polymerized repeat unit),–,≥ 70 °C,"reversibility of phase transition phenomenon (aqueous solution 40 mg/mL, 1° C./5 minutes, 20-70° C. (FIG. 11)): reversible; aggregation temperature at increased concentration (aqueous solution, concentration increased in the range 10 to 40 mg/mL (FIG. 10)): ≤ 70 °C; concentration dependence of aggregation temperature (range of 10 to 40 mg/mL (FIG. 10)): decrease with the increase in the concentration"
